Reference: publication doi:10.1101/2025.04.23.650173 (bioRxiv, 2025)
Like-named read-outs stand apart in the source and are kept apart here.

Key:
AUC [1] = target: the molecule itself; assay: AUC
AUC [2] = target: the molecule itself; assay: AUC; remark: listed apart in the source

B1: wild type murine CXCL4 (natural protein, mouse, UniProt Q9Z126 30-105, looked up)
chain: VTSAGPEESDGDLSCVCVKTISSGIHLKHITSLEVIKAGRHCAVPQLIATLKNGRKICLDRQAPLYKKVIKKILES
stoichiometry N (AUC [1]): 2 | stoichiometry N (AUC [2]): 4
